Results on two substances are retold here after PMC9878614.

In test [1] the target is F-actin (UniProt P68133). The note with it: cited from earlier work.
Test [2] concerns the target F-actin (filamentous actin) (human (endogenous in HEK293)) (UniProt P60709). The test is described as follows: single-molecule localisation microscopy (direct-LIVE-PAINT, TIRF); live HEK293 cells transiently transfected with LifeAct-14-EGFP plasmid (4 ng or 20 ng DNA), imaged 24 h later at 37°C; 488 nm excitation, 50 ms exposure, 2000 frames; transient binding events read as single-molecule localisations.

Consider LifeAct-14 1-14 (from UniProt Q08641), for which, in test [1], the Kd was 1.2 µM.

In test [2], “LifeAct-14-EGFP (from UniProt Q08641 1-14) (peptide)” showed a localizations/s (4 ng DNA transfected) (localizations/s) of 540 and a localizations/s (20 ng DNA transfected) (localizations/s) of 1860.

Broadly, the Kd is the concentration at which binding is half-saturated.
